The text below walks through data of patent US20240009241A1 (published 2024).

The target of experiment [1] is T1, EGFR L858R peptide on HLA-A*33:03 (human).
T1 peptide: HVKITDFGR
Briefly: multimer staining.

Experiment [2] addresses T2, EGFR L858R peptide on HLA-A*33:01 (human).
T2 peptide: HVKITDFGR
In words: killing.

B1: EGFRA33 TCR33-32L (TCR, V domains shown)
Valpha: not shown
Vbeta: GVIQSPRHEVTEMGQEVTLRCKPISGHNSLFWYRQTMMRGLELLIYFNNNVPIDDSGMPEDRFSAKMPNASFSTLKIQPSEPRDSAVYFCASRAGTGEVNEQFFGPGTRLTVL
For B1, the binding result in experiment [1] is on record as “recognises”.

B2: EGFRA33 TCRA33-32H (TCR, V domains shown)
Valpha: QKITQTQPGMFVQEKEAVTLDCTYDTSDQSYGLFWYKQPSSGEMIFLIYQGSYDEQNATEGRYSLNFQKARKSANLVISASQLGDSAMYFCAMREVFGNEKLTFGTGTRLTIIP
Vbeta: EEVAQTPKHLVRGEGQKAKLYCAPIKGHSYVFWYQQVLKNEFKFLISFQNENVFDETGMPKERFSAKCLPNSPCSLEIQATKLEDSAVYFCASSPPPSNTYNEQFFGPGTRLTVL
As to B2, the binding result in experiment [1] and in experiment [2] was “recognises” each time.

B3: EGFRA33 TCRA33-37-3 (TCR, V domains shown)
Valpha: AQKITQTQPGMFVQEKEAVTLDCTYDTSDQSYGLFWYKQPSSGEMIFLIYQGSYDEQNATEGRYSLNFQKARKSANLVISASQLGDSAMYFCAMREVFGNEKLTFGTGTRLTIIP
Vbeta: EEVAQTPKHLVRGEGQKAKLYCAPIKGHSYVFWYQQVLKNEFKFLISFQNENVFDETGMPKGRFSAKCLPNSPCSLEIQATKLEDSAVYFCASSHRSWKGGDTQPQHFGDGTRLSIL
Turning to B3, in experiment [1], the binding result was “recognises”.

B4: EGFRA33 TCRA33-37-4 (TCR, V domains shown)
Valpha: AQKITQTQPGMFVQEKEAVTLDCTYDTSDPSYGLFWYKQPSSGEMIFLIYQGSYDQQNATEGRYSLNFQKARKSANLVISASQLGDSAMYFCAMRSGHLSNFGNEKLTFGTGTRLTIIP
Vbeta: B3 Vbeta
For the molecule B4, the binding result in experiment [1] was “recognises”.
